From patent US20140162950A1 come the findings set out here.

The target of this experiment is integrin α3β1 on gastric cancer cells (MKN45, MKN45/CTGF, AGS) (human) (UniProt P26006). Kind of experiment: cell-based or functional assay.
Chain of UniProt P26006 (P26006 33-1051, chain 1 of 2): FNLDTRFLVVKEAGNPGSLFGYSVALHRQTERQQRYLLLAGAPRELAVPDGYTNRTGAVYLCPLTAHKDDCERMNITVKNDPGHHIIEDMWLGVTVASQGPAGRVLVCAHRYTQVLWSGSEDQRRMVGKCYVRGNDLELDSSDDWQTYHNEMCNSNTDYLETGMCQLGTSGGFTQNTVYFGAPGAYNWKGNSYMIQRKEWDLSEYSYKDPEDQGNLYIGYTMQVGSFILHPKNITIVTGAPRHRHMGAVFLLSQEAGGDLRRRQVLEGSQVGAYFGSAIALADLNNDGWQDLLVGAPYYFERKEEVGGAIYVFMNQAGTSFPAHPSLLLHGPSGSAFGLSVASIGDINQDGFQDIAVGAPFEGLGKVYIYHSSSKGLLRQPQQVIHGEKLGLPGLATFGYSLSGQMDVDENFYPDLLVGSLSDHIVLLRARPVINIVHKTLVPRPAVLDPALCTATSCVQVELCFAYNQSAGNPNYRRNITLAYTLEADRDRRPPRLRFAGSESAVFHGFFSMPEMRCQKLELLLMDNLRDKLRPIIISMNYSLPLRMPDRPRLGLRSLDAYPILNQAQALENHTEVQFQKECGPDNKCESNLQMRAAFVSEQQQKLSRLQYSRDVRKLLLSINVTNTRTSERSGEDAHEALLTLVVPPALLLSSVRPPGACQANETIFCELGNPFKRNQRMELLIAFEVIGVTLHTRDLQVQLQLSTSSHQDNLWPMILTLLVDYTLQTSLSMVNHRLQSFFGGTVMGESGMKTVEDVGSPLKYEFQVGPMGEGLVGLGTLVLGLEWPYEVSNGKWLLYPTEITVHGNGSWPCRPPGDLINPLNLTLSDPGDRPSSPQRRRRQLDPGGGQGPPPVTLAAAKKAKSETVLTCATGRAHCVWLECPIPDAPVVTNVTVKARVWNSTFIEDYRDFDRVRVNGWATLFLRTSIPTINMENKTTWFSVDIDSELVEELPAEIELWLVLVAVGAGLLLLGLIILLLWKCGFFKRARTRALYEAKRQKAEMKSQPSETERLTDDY
Chain of UniProt P26006 (P05556 21-798, chain 2 of 2, further chain): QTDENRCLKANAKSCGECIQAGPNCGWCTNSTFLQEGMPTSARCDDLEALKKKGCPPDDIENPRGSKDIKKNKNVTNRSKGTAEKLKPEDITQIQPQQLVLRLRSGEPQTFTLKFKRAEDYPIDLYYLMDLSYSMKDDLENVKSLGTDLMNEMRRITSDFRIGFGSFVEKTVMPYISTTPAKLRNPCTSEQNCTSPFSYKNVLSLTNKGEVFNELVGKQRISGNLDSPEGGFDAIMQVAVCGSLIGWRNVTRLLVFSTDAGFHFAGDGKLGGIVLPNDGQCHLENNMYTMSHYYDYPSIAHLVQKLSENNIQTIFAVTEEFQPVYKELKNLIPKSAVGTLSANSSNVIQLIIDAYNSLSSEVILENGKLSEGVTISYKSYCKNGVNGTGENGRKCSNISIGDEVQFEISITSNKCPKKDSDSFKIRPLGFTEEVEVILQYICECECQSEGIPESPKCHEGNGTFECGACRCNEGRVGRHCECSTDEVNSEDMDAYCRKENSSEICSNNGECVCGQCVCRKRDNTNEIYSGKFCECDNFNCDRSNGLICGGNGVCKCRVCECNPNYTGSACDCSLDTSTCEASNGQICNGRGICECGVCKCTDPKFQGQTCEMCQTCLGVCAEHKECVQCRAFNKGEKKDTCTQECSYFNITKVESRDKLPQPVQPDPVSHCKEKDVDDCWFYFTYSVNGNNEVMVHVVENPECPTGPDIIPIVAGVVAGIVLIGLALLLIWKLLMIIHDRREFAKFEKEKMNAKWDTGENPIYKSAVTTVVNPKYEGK

As to “recombinant CTGF C terminal (CT) domain (from UniProt P29279 253-349) (ligand)”, the adhesion inhibition (MKN45 cells, matrigel adhesion assay, 6 hours post treatment, 50 ng rCTGF) worked out at 50%; the adhesion inhibition (MKN45 cells, matrigel adhesion assay, 6 hours post treatment, 100 ng rCTGF) was found to be 70%; the adhesion inhibition (MKN45 cells, matrigel adhesion assay, 6 hours post treatment, 200 ng rCTGF) came to 75%.
